# Source: patent US20230013244A1 (BioIncept, LLC, priority 2014, published 2023)
# Tests used:
# [1] = biological target: Actin, cytoplasmic 2 (human) (UniProt P63261); experiment: PIF affinity column + LC-MS/MS, CD14+ cell lysate
# Calreticulin (human) [2] = biological target: Calreticulin (human) (UniProt P27797); experiment: PIF affinity column + LC-MS/MS, CD14+ cell lysate
# [3] = biological target: Heat shock protein HSP 90-beta (human) (UniProt P08238); experiment: PIF affinity column + LC-MS/MS, CD14+ cell lysate
# [4] = biological target: Tropomyosin alpha-4 chain (human) (UniProt P67936); experiment: PIF affinity column + LC-MS/MS, CD14+ cell lysate
# [5] = biological target: Isoform 2 of Adenylyl cyclase-associated protein 1 (human) (UniProt Q01518); experiment: PIF affinity column + LC-MS/MS, CD14+ cell lysate
# Protein S100-A8 (human) = Protein S100-A8 (human) (UniProt P05109); experiment: PIF affinity column + LC-MS/MS, CD14+ cell lysate
# Filamin-A (human) = Filamin-A (human) (UniProt P21333); experiment: PIF affinity column + LC-MS/MS, CD14+ cell lysate
# Myosin-9 (human) = Myosin-9 (human) (UniProt P35579); experiment: PIF affinity column + LC-MS/MS, CD14+ cell lysate
# [6] = biological target: Protein disulfide-isomerase A4 (human) (UniProt P13667); experiment: PIF affinity column + LC-MS/MS, CD14+ cell lysate
# Endoplasmin (human) = Endoplasmin (human) (UniProt P14625); experiment: PIF affinity column + LC-MS/MS, CD14+ cell lysate
# [7] = biological target: Histone-binding protein RBBP7 (human) (UniProt E9PC52); experiment: PIF affinity column + LC-MS/MS, CD14+ cell lysate
# [8] = biological target: Isoform Short of 14-3-3 protein beta/alpha (human) (UniProt P31946); experiment: PIF affinity column + LC-MS/MS, CD14+ cell lysate
# [9] = biological target: 14-3-3 protein theta (human) (UniProt P27348); experiment: PIF affinity column + LC-MS/MS, CD14+ cell lysate
# Tropomodulin-3 (human) = Tropomodulin-3 (human) (UniProt Q9NYL9); experiment: PIF affinity column + LC-MS/MS, CD14+ cell lysate
# [10] = biological target: Tubulin alpha-4A chain (human) (UniProt P68366); experiment: PIF affinity column + LC-MS/MS, CD14+ cell lysate
# [11] = biological target: Actinin alpha 1 isoform 3 (human) (UniProt P12814); experiment: PIF affinity column + LC-MS/MS, CD14+ cell lysate
# Matrin-3 (human) = Matrin-3 (human) (UniProt A8MXP9); experiment: PIF affinity column + LC-MS/MS, CD14+ cell lysate
# [12] = biological target: 78 kDa glucose-regulated protein (human) (UniProt P11021); experiment: PIF affinity column + LC-MS/MS, CD14+ cell lysate
# [13] = biological target: Isoform 2 of Ras suppressor protein 1 (human) (UniProt Q15404); experiment: PIF affinity column + LC-MS/MS, CD14+ cell lysate
# [14] = biological target: Cartilage oligomeric matrix protein (human) (UniProt P49747); experiment: PIF affinity column + LC-MS/MS, CD4+ cell lysate
# Thymosin alpha-1 (human) = Thymosin alpha-1 (human) (UniProt P06454); experiment: PIF affinity column + LC-MS/MS, CD4+ cell lysate
# Calreticulin (human) [15] = biological target: Calreticulin (human) (UniProt P27797); experiment: PIF affinity column + LC-MS/MS, CD4+ cell lysate
# Cofilin-1 (human) = Cofilin-1 (human) (UniProt P23528); experiment: PIF affinity column + LC-MS/MS, CD4+ cell lysate
# [16] = biological target: Isoform 2 of Protein SET (human) (UniProt Q01105); experiment: PIF affinity column + LC-MS/MS, CD4+ cell lysate
# [17] = biological target: Acidic leucine-rich nuclear phosphoprotein 32 family member A (human) (UniProt P39687); experiment: PIF affinity column + LC-MS/MS, CD4+ cell lysate
# [18] = biological target: Tropomyosin alpha-4 chain (human) (UniProt P67936); experiment: PIF affinity column + LC-MS/MS, CD4+ cell lysate
# [19] = biological target: Isoform 2 of Heat shock protein HSP 90-alpha (human) (UniProt P07900); experiment: PIF affinity column + LC-MS/MS, CD4+ cell lysate
# [20] = biological target: Actin, cytoplasmic 1 (human) (UniProt P60709); experiment: PIF affinity column + LC-MS/MS, CD4+ cell lysate
# Serum albumin (human) = Serum albumin (human) (UniProt P02768); experiment: PIF affinity column + LC-MS/MS, CD4+ cell lysate
# [21] = biological target: Serine/arginine-rich-splicing factor 2 (human) (UniProt Q01130); experiment: PIF affinity column + LC-MS/MS, CD4+ cell lysate
# Chain of Cartilage oligomeric matrix protein (human) (P49747 21-757 limits assumed): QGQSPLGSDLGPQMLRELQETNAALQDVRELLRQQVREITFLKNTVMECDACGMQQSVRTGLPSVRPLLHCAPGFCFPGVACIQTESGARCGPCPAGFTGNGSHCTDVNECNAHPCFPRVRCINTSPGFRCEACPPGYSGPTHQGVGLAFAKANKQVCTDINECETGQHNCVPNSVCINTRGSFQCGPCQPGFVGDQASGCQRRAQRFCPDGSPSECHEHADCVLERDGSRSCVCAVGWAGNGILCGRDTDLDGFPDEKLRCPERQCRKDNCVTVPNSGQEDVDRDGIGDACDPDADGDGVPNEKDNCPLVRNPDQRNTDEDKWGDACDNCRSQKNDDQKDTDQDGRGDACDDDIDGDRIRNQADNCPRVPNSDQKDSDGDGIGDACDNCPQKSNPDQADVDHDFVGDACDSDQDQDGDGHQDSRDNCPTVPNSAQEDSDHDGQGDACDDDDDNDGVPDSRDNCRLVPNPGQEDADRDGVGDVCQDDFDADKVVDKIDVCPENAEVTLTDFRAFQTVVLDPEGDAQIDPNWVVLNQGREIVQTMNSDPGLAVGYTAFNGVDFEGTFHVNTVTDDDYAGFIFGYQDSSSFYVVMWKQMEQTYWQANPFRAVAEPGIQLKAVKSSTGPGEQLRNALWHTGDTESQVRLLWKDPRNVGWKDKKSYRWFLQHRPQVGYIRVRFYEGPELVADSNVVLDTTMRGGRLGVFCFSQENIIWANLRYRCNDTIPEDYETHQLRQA
# Chain of 14-3-3 protein theta (human) (P27348 whole entry): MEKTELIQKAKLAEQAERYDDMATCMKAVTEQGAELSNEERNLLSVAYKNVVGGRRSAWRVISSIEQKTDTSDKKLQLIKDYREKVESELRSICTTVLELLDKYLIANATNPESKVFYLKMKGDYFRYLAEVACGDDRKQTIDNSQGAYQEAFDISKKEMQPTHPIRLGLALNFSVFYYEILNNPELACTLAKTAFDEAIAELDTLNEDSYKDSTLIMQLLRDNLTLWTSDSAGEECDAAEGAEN
# Chain of Endoplasmin (human) (P14625 22-803 limits assumed): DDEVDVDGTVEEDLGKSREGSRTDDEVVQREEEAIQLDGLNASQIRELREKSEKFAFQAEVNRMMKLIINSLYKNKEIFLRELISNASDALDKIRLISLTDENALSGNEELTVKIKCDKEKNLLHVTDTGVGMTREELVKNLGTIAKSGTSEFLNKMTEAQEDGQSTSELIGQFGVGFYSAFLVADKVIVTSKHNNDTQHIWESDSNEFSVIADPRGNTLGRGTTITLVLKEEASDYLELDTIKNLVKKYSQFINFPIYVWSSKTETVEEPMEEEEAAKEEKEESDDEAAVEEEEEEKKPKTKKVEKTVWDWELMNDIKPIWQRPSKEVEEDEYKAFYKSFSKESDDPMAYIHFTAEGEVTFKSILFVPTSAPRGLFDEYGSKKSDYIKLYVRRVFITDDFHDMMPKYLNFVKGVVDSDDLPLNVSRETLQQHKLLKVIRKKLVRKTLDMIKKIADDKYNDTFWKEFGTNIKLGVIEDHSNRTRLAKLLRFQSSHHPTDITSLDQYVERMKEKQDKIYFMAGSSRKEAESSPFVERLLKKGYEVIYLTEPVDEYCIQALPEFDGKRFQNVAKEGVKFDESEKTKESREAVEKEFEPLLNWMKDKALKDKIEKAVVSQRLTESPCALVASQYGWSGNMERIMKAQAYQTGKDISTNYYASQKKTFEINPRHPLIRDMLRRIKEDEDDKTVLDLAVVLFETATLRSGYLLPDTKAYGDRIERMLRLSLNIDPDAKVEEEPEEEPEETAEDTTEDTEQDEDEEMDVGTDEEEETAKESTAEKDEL
# Chain of Tropomyosin alpha-4 chain (human) (P67936 2-248 limits assumed): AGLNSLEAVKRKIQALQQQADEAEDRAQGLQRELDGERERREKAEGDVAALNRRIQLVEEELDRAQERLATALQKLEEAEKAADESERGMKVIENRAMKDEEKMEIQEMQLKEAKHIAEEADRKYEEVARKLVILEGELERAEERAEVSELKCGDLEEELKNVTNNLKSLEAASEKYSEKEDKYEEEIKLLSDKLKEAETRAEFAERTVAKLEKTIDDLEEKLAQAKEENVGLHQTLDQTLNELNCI
# Chain of Cofilin-1 (human) (P23528 2-166 limits assumed): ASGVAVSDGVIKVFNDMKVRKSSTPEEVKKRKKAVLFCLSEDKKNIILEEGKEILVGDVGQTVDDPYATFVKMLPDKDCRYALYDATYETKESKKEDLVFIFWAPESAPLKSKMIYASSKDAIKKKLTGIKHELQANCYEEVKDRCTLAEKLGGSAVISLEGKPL
# Chain of Tropomodulin-3 (human) (Q9NYL9 whole entry): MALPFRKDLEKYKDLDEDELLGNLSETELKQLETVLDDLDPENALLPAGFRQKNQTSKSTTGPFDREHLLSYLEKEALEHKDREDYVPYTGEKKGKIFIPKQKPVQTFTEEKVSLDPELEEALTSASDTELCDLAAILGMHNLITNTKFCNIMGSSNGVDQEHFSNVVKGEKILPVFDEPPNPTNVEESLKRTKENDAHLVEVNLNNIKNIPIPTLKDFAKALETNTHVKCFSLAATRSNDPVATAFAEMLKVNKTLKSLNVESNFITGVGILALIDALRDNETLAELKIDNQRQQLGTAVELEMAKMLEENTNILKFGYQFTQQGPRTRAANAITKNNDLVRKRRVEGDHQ
# Chain of Calreticulin (human) (P27797 18-417 limits assumed): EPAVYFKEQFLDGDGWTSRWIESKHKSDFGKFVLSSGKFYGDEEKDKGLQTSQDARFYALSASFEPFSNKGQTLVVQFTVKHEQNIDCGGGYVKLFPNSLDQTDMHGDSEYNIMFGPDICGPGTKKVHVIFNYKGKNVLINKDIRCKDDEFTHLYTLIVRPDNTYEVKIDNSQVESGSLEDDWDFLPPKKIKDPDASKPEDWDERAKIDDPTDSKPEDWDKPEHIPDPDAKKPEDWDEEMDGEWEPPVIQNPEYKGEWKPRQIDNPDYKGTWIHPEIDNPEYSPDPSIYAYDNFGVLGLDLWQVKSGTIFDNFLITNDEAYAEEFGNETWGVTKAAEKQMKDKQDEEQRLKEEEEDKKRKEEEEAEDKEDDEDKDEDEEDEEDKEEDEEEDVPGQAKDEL
# Chain of Actinin alpha 1 isoform 3 (human) (P12814 other isoform, or with tags, fused parts or gaps): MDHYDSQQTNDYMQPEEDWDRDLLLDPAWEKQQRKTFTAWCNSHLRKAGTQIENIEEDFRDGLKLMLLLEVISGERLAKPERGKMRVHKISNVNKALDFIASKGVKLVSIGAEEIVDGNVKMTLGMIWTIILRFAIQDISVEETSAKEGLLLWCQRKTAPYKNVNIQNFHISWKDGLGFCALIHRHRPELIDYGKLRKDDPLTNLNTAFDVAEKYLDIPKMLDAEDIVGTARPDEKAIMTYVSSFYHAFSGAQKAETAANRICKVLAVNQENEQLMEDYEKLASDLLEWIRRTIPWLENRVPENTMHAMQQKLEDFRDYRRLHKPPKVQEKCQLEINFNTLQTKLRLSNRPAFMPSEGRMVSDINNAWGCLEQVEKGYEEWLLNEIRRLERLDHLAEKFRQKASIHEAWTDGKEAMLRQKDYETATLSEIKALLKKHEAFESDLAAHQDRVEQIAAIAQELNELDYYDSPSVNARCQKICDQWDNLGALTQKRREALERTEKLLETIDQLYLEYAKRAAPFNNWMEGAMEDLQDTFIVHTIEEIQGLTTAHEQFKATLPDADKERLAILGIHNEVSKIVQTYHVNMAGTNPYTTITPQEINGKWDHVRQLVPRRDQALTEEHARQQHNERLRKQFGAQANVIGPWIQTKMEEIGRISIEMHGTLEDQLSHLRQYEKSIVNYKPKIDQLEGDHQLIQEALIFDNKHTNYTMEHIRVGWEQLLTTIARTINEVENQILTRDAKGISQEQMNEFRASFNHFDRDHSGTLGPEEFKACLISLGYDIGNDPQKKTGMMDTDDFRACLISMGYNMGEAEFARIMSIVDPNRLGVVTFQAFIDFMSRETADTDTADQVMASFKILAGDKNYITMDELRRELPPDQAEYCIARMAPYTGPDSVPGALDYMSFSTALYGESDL
# Chain of Histone-binding protein RBBP7 (human) (E9PC52 entry or part of it limits assumed, form in doubt): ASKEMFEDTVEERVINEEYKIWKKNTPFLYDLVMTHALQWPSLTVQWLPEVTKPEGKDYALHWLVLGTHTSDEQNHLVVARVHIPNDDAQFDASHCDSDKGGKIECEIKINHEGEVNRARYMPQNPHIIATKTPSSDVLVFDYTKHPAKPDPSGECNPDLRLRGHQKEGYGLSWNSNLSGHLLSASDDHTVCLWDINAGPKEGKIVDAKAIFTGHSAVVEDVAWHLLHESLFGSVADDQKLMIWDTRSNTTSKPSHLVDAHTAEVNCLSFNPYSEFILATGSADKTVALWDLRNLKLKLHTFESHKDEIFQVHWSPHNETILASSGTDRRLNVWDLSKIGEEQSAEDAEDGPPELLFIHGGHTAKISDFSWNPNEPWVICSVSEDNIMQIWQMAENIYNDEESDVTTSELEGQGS
# Chain of Isoform 2 of Protein SET (human) (Q01105 other isoform, or with tags, fused parts or gaps limits assumed): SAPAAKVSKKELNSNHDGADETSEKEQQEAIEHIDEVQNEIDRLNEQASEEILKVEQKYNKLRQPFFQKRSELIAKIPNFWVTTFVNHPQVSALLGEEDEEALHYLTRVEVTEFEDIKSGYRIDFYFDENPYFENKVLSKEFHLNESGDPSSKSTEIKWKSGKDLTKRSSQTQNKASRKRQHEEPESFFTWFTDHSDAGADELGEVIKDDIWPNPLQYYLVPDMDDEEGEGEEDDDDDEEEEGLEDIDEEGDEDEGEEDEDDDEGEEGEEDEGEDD
# Chain of Isoform 2 of Ras suppressor protein 1 (human) (Q15404 54-277 limits assumed): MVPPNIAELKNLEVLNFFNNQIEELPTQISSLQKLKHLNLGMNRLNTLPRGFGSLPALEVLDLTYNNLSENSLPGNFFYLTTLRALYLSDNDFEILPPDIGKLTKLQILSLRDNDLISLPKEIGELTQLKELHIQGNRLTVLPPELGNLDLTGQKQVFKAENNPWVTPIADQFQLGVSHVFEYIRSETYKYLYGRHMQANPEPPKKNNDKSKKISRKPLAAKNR
# Chain of Thymosin alpha-1 (human) (P06454 other isoform, or with tags, fused parts or gaps limits assumed): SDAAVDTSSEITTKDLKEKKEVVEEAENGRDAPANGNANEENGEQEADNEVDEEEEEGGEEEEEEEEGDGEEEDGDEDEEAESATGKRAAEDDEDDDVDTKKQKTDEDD
substance,measurement,setting,value
PIF-resin (PIF15 affinity ligand on agarose) (peptide),Ave,[1],7
same,Inject 1,[1],6
same,Inject 2,[1],7
same,Inject 3,[1],7
same,Inject 2,Calreticulin (human) [2],4
same,Ave,[3],1
same,Inject 2,[3],1
same,Inject 3,[3],1
same,Ave,[4],8
same,Inject 1,[4],8
same,Inject 3,[4],8
same,Inject 1,[5],4
same,Inject 2,Protein S100-A8 (human),1
same,Ave,Filamin-A (human),5
same,Inject 1,Filamin-A (human),5
same,Ave,Myosin-9 (human),10
same,Inject 1,Myosin-9 (human),11
same,Inject 2,Myosin-9 (human),9
same,Inject 3,Myosin-9 (human),10
same,Inject 1,[6],4
same,Inject 2,[6],1
same,Ave,Endoplasmin (human),1
same,Inject 1,Endoplasmin (human),0
same,Inject 3,Endoplasmin (human),1
same,Ave,[7],1
same,Inject 2,[7],0
same,Inject 3,[7],1
same,Inject 3,[8],4
same,Ave,[9],1
same,Inject 1,[9],1
same,Inject 2,[9],1
same,Ave,Tropomodulin-3 (human),1
same,Inject 1,Tropomodulin-3 (human),1
same,Inject 3,Tropomodulin-3 (human),1
same,Inject 3,[10],1
same,Ave,[11],4
same,Inject 1,[11],5
same,Inject 2,[11],4
same,Ave,Matrin-3 (human),1
same,Inject 1,Matrin-3 (human),1
same,Inject 3,Matrin-3 (human),1
same,Ave,[12],4
same,Ave,[13],1
same,Inject 1,[13],0
same,Inject 2,[13],1
same,Ave,[14],10
same,Inject 1,[14],10
same,Inject 2,[14],10
same,Inject 3,[14],11
same,Ave,Thymosin alpha-1 (human),5
same,Inject 1,Thymosin alpha-1 (human),4
same,Inject 2,Thymosin alpha-1 (human),5
same,Ave,Calreticulin (human) [15],4
same,Inject 1,Calreticulin (human) [15],4
same,Inject 2,Calreticulin (human) [15],4
same,Inject 3,Calreticulin (human) [15],4
same,Ave,Cofilin-1 (human),1
same,Inject 1,Cofilin-1 (human),1
same,Inject 2,Cofilin-1 (human),1
same,Inject 3,Cofilin-1 (human),1
same,Ave,[16],4
same,Inject 2,[16],4
same,Inject 3,[16],4
same,Ave,[17],1
same,Inject 1,[17],1
same,Inject 2,[17],1
same,Inject 3,[17],1
same,Ave,[18],4
same,Inject 1,[18],4
same,Inject 2,[18],4
same,Inject 3,[18],4
same,Ave,[19],4
same,Inject 1,[19],4
same,Inject 2,[19],4
same,Inject 3,[19],4
same,Ave,[20],2
same,Inject 1,[20],2
same,Inject 2,[20],2
same,Inject 3,[20],2
same,Ave,Serum albumin (human),8
same,Inject 1,Serum albumin (human),4
same,Inject 3,Serum albumin (human),12
same,Inject 1,[21],1
